PMC10540051

Target: purified extracellular moiety of SorCS1 (UniProt Q8WY21)
Experiment: SPR; BIAcore 3000, CM5 chip; extracellular moiety of SorCS1 immobilised at about 50 fmol/mm^2; mature BDNF (50–200 nM) injected at 5 μl/min in 10 mM Hepes, 150 mM NaCl, 1.5 mM CaCl2, 1 mM EGTA, 0.005% Tween-20, pH 7.4; Langmuir 1:1 model

Chain of UniProt Q8WY21 (Q8WY21 34-1099): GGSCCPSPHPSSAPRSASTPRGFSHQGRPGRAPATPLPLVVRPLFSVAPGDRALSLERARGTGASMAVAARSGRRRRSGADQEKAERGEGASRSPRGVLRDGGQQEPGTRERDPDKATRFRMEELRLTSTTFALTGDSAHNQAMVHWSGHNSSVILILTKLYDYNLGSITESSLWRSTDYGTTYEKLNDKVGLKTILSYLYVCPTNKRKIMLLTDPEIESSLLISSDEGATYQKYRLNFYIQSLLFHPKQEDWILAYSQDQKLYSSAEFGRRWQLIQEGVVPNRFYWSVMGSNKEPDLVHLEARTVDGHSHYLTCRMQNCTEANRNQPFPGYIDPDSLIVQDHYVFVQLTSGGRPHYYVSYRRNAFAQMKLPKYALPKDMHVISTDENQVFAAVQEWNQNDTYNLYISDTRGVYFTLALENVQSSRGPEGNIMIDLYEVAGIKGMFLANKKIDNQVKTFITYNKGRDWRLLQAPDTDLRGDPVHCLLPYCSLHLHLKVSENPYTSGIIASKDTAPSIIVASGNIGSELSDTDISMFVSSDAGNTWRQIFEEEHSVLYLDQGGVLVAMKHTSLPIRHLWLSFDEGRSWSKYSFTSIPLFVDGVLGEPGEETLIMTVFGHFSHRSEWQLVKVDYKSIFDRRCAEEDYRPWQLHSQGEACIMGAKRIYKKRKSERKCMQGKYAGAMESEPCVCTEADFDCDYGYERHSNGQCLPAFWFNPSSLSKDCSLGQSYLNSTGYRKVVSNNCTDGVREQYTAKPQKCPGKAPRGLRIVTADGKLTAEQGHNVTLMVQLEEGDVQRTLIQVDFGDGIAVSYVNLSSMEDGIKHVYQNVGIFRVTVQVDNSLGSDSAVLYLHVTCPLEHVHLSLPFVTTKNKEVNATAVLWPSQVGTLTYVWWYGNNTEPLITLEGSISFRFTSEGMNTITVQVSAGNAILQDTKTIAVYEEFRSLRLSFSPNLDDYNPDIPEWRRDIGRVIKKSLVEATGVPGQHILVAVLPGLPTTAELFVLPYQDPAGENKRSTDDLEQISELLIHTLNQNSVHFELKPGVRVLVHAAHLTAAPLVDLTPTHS

- Kd: 60 nM
Substance: mature BDNF (ligand)
